B1: KLHL13 (parent)
chain: GVSKVGLRKIIDFIYTAKLSLNMD

Variants of: B1
Assay: protein stability index of a GFP-peptide fusion (GPS, HEK-293T) (PSI 1-6); higher = more stable
Settings: c terminus: a fixed tail appended
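Also: lentivirally expressed fusions sorted by FACS into six bins by GFP to DsRed ratio, PSI derived from sequencing read proportions per bin multiplied by bin number.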

Variant	protein stability index
GVSKVGLRKIIDPIYTAKLSLNMD	2.22
GVSKVGLRKIIDSIYTAKLSLNMD	1.44
GVSKVGLRKIIDKIYTAKLSLNMD	1.66
GVSKVGLRKIIDRIYTAKLSLNMD	1.54
GVSKVGLRKIIDGIYTAKLSLNMD	2.41
GVSKVGLRKIIDCIYTAKLSLNMD	2.83
GVSKVGLRKIIDQIYTAKLSLNMD	1.04
GVSKVGLRKIIDHIYTAKLSLNMD	2.62
GVSKVGLRKIIDNIYTAKLSLNMD	1.48
GVSKVGLRKIIDEIYTAKLSLNMD	1.43
GVSKVGLRKIIDMIYTAKLSLNMD	2.74
GVSKVGLRKIIDTIYTAKLSLNMD	1.93
GVSKVGLRKIIDVIYTAKLSLNMD	3.34
GVSKVGLRKIIDDIYTAKLSLNMD	1.7
GVSKVGLRKIPDFIYTAKLSLNMD	1.97
GVSKVGLRKIEDFIYTAKLSLNMD	2.1
GVSKVGLRKIMDFIYTAKLSLNMD	3.33
GVSKVGLRKISDFIYTAKLSLNMD	1.89
GVSKVGLRKIQDFIYTAKLSLNMD	1.61
GVSKVGLRKINDFIYTAKLSLNMD	2.24
GVSKVGLRKIADFIYTAKLSLNMD	1.87
GVSKVGLRKIGDFIYTAKLSLNMD	2.63
GVSKVGLRKIHDFIYTAKLSLNMD	4.7
GVSKVGLRKIKDFIYTAKLSLNMD	4.1

Variant	protein stability index
GVSKVGLRKIYDFIYTAKLSLNMD	4.12
GVSKVGLRKILDFIYTAKLSLNMD	3.57
GVSKVGLRKIDDFIYTAKLSLNMD	2.14
GCSKVGLRKIIDFIYTAKLSLNMD	1.52
GPSKVGLRKIIDFIYTAKLSLNMD	1.83
GKSKVGLRKIIDFIYTAKLSLNMD	2.38
GNSKVGLRKIIDFIYTAKLSLNMD	2.03
GTSKVGLRKIIDFIYTAKLSLNMD	4.01
GDSKVGLRKIIDFIYTAKLSLNMD	3.51
GGSKVGLRKIIDFIYTAKLSLNMD	3.41
GSSKVGLRKIIDFIYTAKLSLNMD	1.79
GYSKVGLRKIIDFIYTAKLSLNMD	2.11
GHSKVGLRKIIDFIYTAKLSLNMD	1.7
GFSKVGLRKIIDFIYTAKLSLNMD	1.65
GVSKVGTRKIIDFIYTAKLSLNMD	2.6
GVSKVGKRKIIDFIYTAKLSLNMD	1.86
GVSKVGGRKIIDFIYTAKLSLNMD	3.85
GVSKVGIRKIIDFIYTAKLSLNMD	3.25
GVSKVGQRKIIDFIYTAKLSLNMD	2.97
GVSKVGRRKIIDFIYTAKLSLNMD	2.5
GVSKVGHRKIIDFIYTAKLSLNMD	3.17
GVSKVGARKIIDFIYTAKLSLNMD	2.27
GVSKVGFRKIIDFIYTAKLSLNMD	2.93
GVSKVGCRKIIDFIYTAKLSLNMD	3.38

Variant	protein stability index
GVSKVGSRKIIDFIYTAKLSLNMD	2.94
GVSKVGWRKIIDFIYTAKLSLNMD	2.05
GVSKVGLKKIIDFIYTAKLSLNMD	4.72
GVSKVGLMKIIDFIYTAKLSLNMD	1.69
GVSKVGLCKIIDFIYTAKLSLNMD	2.46
GVSKVGLPKIIDFIYTAKLSLNMD	1.92
GVSKVGLGKIIDFIYTAKLSLNMD	2.07
GVSKVGLLKIIDFIYTAKLSLNMD	4.65
GVSKVGLEKIIDFIYTAKLSLNMD	1.49
GVSKVGLIKIIDFIYTAKLSLNMD	2.55
GVSKVGLHKIIDFIYTAKLSLNMD	2.07
GVSKVGLAKIIDFIYTAKLSLNMD	5.37
GVSKVGLWKIIDFIYTAKLSLNMD	3.31
GVSKVGLDKIIDFIYTAKLSLNMD	3.02
GVSKSGLRKIIDFIYTAKLSLNMD	3.47
GVSKGGLRKIIDFIYTAKLSLNMD	3.21
GVSKYGLRKIIDFIYTAKLSLNMD	2.06
GVSKNGLRKIIDFIYTAKLSLNMD	3.8
GVSKWGLRKIIDFIYTAKLSLNMD	3.14
GVSKPGLRKIIDFIYTAKLSLNMD	2.58
GVSKFGLRKIIDFIYTAKLSLNMD	4.57
GVSKLGLRKIIDFIYTAKLSLNMD	2.12
GVSKRGLRKIIDFIYTAKLSLNMD	3.04
GVSKMGLRKIIDFIYTAKLSLNMD	2.27

Variant	protein stability index
GVSKEGLRKIIDFIYTAKLSLNMD	1.83
GVSKIGLRKIIDFIYTAKLSLNMD	1.5
GVSKCGLRKIIDFIYTAKLSLNMD	2.67
GVSKAGLRKIIDFIYTAKLSLNMD	2.64
GVSKTGLRKIIDFIYTAKLSLNMD	4.05
GVSKQGLRKIIDFIYTAKLSLNMD	3.5
SVSKVGLRKIIDFIYTAKLSLNMD	3.05
TVSKVGLRKIIDFIYTAKLSLNMD	3.89
KVSKVGLRKIIDFIYTAKLSLNMD	2.08
LVSKVGLRKIIDFIYTAKLSLNMD	2.96
NVSKVGLRKIIDFIYTAKLSLNMD	2.53
PVSKVGLRKIIDFIYTAKLSLNMD	1.75
AVSKVGLRKIIDFIYTAKLSLNMD	3.93
QVSKVGLRKIIDFIYTAKLSLNMD	2.05
WVSKVGLRKIIDFIYTAKLSLNMD	3.32
HVSKVGLRKIIDFIYTAKLSLNMD	2.49
GVSKVGLRKKIDFIYTAKLSLNMD	2.98
GVSKVGLRKPIDFIYTAKLSLNMD	1.81
GVSKVGLRKCIDFIYTAKLSLNMD	1.53
GVSKVGLRKTIDFIYTAKLSLNMD	2.02
GVSKVGLRKSIDFIYTAKLSLNMD	4.37
GVSKVGLRKAIDFIYTAKLSLNMD	2.04
